± gives the standard deviation.

The series in a line: protein stability index of a GFP-peptide fusion (GPS, HEK-293T) (PSI 1-6); higher = more stable.
Setting [1] is: treatment: DMSO, c terminus: a fixed tail appended.
Setting [2] is: treatment: MLN4924 1 uM, 8 h, c terminus: a fixed tail appended.
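Also: 24-mer peptide tiles fused after GFP, lentivirally expressed, FACS-sorted into six equal bins by GFP/DsRed ratio, decoded by Illumina sequencing, PSI is the read-weighted mean bin number.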

EFRAHRAVLAASSPYFHDQVLLKG [ZBTB22]: the protein stability index was found to be 2.57 ± 0.23 under setting [1] and 2.77 ± 0.4 under setting [2].

Take EGGGGGSYFSGQGSDTGASLKLAS [JUNB]: the protein stability index runs as follows: under setting [1], 4.67 ± 0.12; under setting [2], 4.72 ± 0.12.

Consider EGQDLQHISNQKMPTGPPEDRLSL [DRICH1], for which the protein stability index reads like this: under setting [1], 5.11 ± 0.37; under setting [2], 5.03 ± 0.26.

In the case of EHGLHTKYIHRMMQIEFIKQGSMN [TRAF3IP2], the protein stability index runs as follows: under setting [1], 2.3 ± 0.2; under setting [2], 2.5 ± 0.26.

As to EHVFDLILELYNIDSHLLLSVLPQ [PDS5B], the protein stability index reads like this: under setting [1], 2.92 ± 0.47; under setting [2], 2.85 ± 0.72.

Regarding EHYRVQTQQTGTVRFDGYVIDGAT [FEM1B], the protein stability index runs as follows: under setting [1], 3.64 ± 0.3; under setting [2], 3.88 ± 0.26.

As for EIFRRHFRQLCYQETPGPREALTR [ZSCAN9], the protein stability index is, setting by setting: under setting [1], 2.51 ± 0.17; under setting [2], 2.76 ± 0.24.

Turning to EIGTSDQIVPEYQEDSDISSFFC [TRIB1], the protein stability index by setting is: (treatment: DMSO, c terminus: native) 3.38 ± 0.66; (treatment: MLN4924 1 uM, 8 h, c terminus: native) 4.22 ± 0.82.

EIKDKDQLVLRTKEAFDTIQEQKV [SASS6]: the protein stability index was determined as 4.54 ± 0.25 under setting [1] and 4.53 ± 0.46 under setting [2].

Consider EIMLQYCFPRLDINVSKGINHLLK [PRIM1], for which the protein stability index runs as follows: under setting [1], 2.18 ± 0.67; under setting [2], 2.5 ± 0.47.

Consider EIQREIGISNALHRLKLRLAIQEM [PPFIA4], for which the protein stability index by setting is: under setting [1], 2.35 ± 0.72; under setting [2], 2.3 ± 0.45.

Consider EKEDAEKENIEKDEDDVDQELANI [SRPK2], for which the protein stability index reads like this: under setting [1], 5.62 ± 0.36; under setting [2], 5.61 ± 0.31.

Take EKEEDHAPEFIKVRENLRRIATLT [FAM107A]: the protein stability index runs as follows: under setting [1], 2.58 ± 0.56; under setting [2], 2.81 ± 0.6.

Turning to EKQELQELNDRFANFIEKVRFLEQ [PRPH], the protein stability index runs as follows: under setting [1], 3.08 ± 0.17; under setting [2], 3.29 ± 0.34.

EKQKQPRWREGTKDSHDPLPSWAE [PBXIP1] yielded a protein stability index under setting [1] of 3.01 ± 0.51 and a protein stability index under setting [2] of 3.18 ± 1.1.

In the case of EKRLQEIEELEREAERKIIEENIT [SRPK2], the protein stability index reads like this: under setting [1], 5.03 ± 0.33; under setting [2], 5.39 ± 0.26.

ELADARRALDDTARERAKLQIELG [LMNB1] gave a protein stability index under setting [1] of 4.72 ± 0.075 and a protein stability index under setting [2] of 4.69 ± 0.15.

As to ELKCPVCGSFYREPIILPCSHNLC [TRIM9], the protein stability index came to 4.1 ± 0.29 under setting [1] and 4.12 ± 0.32 under setting [2].

On to ELKKMVQQSDLGQYVTFLRSFSDK [ALG2], for which the protein stability index stood at 2.21 ± 0.29 under setting [1] and 2.53 ± 0.42 under setting [2].

With ELMPSSRLWSLSYTKLPSSLQSTG [SLC25A39], the protein stability index is, setting by setting: under setting [1], 2.48 ± 0.13; under setting [2], 2.47 ± 0.14.

Regarding ELRDLQVSVESQQVQQVEVEATVK [PRPH], the protein stability index stood at 4.88 ± 0.2 under setting [1] and 4.96 ± 0.14 under setting [2].

In the case of ELRGAEPGRPARLDQLLDMPAAGL [SPSB4], the protein stability index was determined as 3.84 ± 0.46 under setting [1] and 4.02 ± 0.5 under setting [2].

ELSLVTLFRCIQNMPETLPNNSCY [TNFSF13B]: the protein stability index is, setting by setting: under setting [1], 3.65 ± 1.3; under setting [2], 2.94 ± 0.5.

For the sequence ELYGLALRFFKEKDGKAFHPTYEE [ACBD3], the protein stability index amounted to 2.13 ± 0.26 under setting [1] and 2.19 ± 0.35 under setting [2].

Regarding EMPKSSDFLIHPPERSDLTLYLIV [PCDHGC5], the protein stability index under setting [1] amounted to 2.83 ± 0.47 and the protein stability index under setting [2] turned out to be 2.72 ± 0.3.

Consider ENLKQQRSRREQFSRAPVSALPLA [STX5], for which the protein stability index was determined as 3.74 ± 0.37 under setting [1] and 3.75 ± 0.17 under setting [2].

Regarding EPCQLPSESPGSLSEVLAQPQGAL [DNAAF3], the protein stability index by setting is: under setting [1], 5.16 ± 0.22; under setting [2], 5.13 ± 0.39.

EPEKLYAMPDPAGPDGHLPAVATL [ESRRA]: the protein stability index turned out to be 4.65 ± 0.27 under setting [1] and 4.69 ± 0.23 under setting [2].

The sequence EPLPVERDPAAGAAPFRFVARPVR [ZNF511] showed a protein stability index under setting [1] of 2.77 ± 0.68 and a protein stability index under setting [2] of 3.48 ± 0.87.

For the origin of these results see the supplement of paper PMC10567573.
